From article PMC4678825

Target: Qβ replicase core complex (β-subunit, EF-Tu and EF-Ts), wild type (E. coli | bacteriophage Qβ)
Experiment: SEC-MALS

Substance “Qβ replicase core complex (β-subunit, EF-Tu and EF-Ts), wild type” has a stoichiometry N of 2.
